From US20020022239A1, “PHYTOFLUORS AS FLUORESCENT LABELS” (priority 1999, published 2002)

Assay: Covalent bilin (PCB) binding of recombinant apophytochrome polypeptides upon incubation with PCB (zinc blot)
Details: incubation with PCB
Text: This work thus confirms that the structural motif illustrated in FIG. 2 represents the bilin-binding domain of the ‘phytochrome superfamily’ from which new phytofluors of different colors can be devised.
Based on the multiple sequence alignment shown in FIG. 2, and using methods described in W098/04700, a bacterial expression vector express a Strep-Tagged version of N-terminal 197 amino acid region of Cph2 (Cph2-N197) that encompassed ‘module 1’ only was constructed (see, FIG. 3).
To address the importance of conserved residues in the bilin lyase domain of Cph1 to bilin attachment and spectral properties of its bilin adducts, site-directed mutagenesis of some of these residues were undertaken. Charged residues D171, R172, E189 and R222 of Cph1 (N514) were mutagenized in the initial studies.

Row | covalent binding of PCB | Molecule
1 | yielded a covalent biliprotein adduct | Cph2-N197: Strep-Tagged N-terminal 197 amino acid region of Cph2 (SEQ ID NO: 9), module 1 only (protein, Strep-Tag) KLAVRAISRLQSLPGGDIGALCDTVVEDVQRLTGYDRVMVYQFHEDDHGEVVSEIRRSDLEPYLGLHYPATDIPQAARFLFKQNRVRMICDCNATPVKVVQSEELKRPLCLVNSTLRAPHGCHTQYMANMGSVASLALAIVVKGKDSSKLWGLVVGHHCSPRYVPFPLRYACEFLMQAFGLQLQMELQLASQLAEK
2 | covalently bind PCB | cph2a (N390): first 390 amino acid residues of Cph2 (SLL0821), N-terminal phytochrome-related domain (protein, UniProt Q55434 1-390, looked up, fragment) MNPNRSLEDFLRNVINKFHRALTLRETLQVIVEEARIFLGVDRVKIYKFASDGSGEVLAEAVNRAALPSLLGLHFPVEDIPPQAREELGNQRKMIAVDVAHRRKKSHELSGRISPTEHSNGHYTTVDSCHIQYLLAMGVLSSLTVPVMQDQQLWGIMAVHHSKPRRFTEQEWETMALLSKEVSLAITQSQLSRQVHQQQVQEALVQRLETTVAQYGDRPETWQYALETVGQAVEADGAVLYIAPDLTGSVAQHYQWNLRFDWGNWLETSLWQELMRGQPSAAMEPMAAVQSTWEKPRPFTSVAPLPPTNCVPHGYTLGELEQRSDWIAPPESLSAENFQSFLIVPLAADQQWVGSLILLRKEKSLVKHWAGKRGIDRRNILPRLSFEAWE

Same assay, conditions: site-directed mutants of Cph1 (N514)

Row | PCB Binding | Molecule
3 | yes | Cph1 (N514) R222G: site-directed single mutant R222G of Cph1 (N514) (protein, UniProt Q55168 1-514, looked up, variant R222G, N514 fragment) MATTVQLSDQSLRQLETLAIHTAHLIQPHGLVVVLQEPDLTISQISANCTGILGRSPEDLLGRTLGEVFDSFQIDPIQSRLTAGQISSLNPSKLWARVMGDDFVIFDGVFHRNSDGLLVCELEPAYTSDNLPFLGFYHMANAALNRLRQQANLRDFYDVIVEEVRRMTGFDRVMLYRFDENNHGDVIAEDKRDDMEPYLGLHYPESDIPQPARRLFIHNPIGVIPDVYGVAVPLTPAVNPSTNRAVDLTESILRSAYHCHLTYLKNMGVGASLTISLIKDGHLWGLIACHHQTPKVIPFELRKACEFFGRVVFSNISAQEDTETFDYRVQLAEHEAVLLDKMTTAADFVEGLTNHPDRLLGLTGSQGAAICFGEKLILVGETPDEKAVQYLLQWLENREVQDVFFTSSLSQIYPDAVNFKSVASGLLAIPIARHNFLLWFRPEVLQTVNWGGDPNHAYEATQEDGKIELHPRQSFDLWKEIVRLQSLPWQSVEIQSALALKKAIVNLILRQAEE
4 | no | Cph1 (N514) DR171/2AA: double mutant D171A/R172A of Cph1 (N514) (protein, UniProt Q55168 1-514, looked up, variant D171A R172A, N514 fragment) MATTVQLSDQSLRQLETLAIHTAHLIQPHGLVVVLQEPDLTISQISANCTGILGRSPEDLLGRTLGEVFDSFQIDPIQSRLTAGQISSLNPSKLWARVMGDDFVIFDGVFHRNSDGLLVCELEPAYTSDNLPFLGFYHMANAALNRLRQQANLRDFYDVIVEEVRRMTGFAAVMLYRFDENNHGDVIAEDKRDDMEPYLGLHYPESDIPQPARRLFIHNPIRVIPDVYGVAVPLTPAVNPSTNRAVDLTESILRSAYHCHLTYLKNMGVGASLTISLIKDGHLWGLIACHHQTPKVIPFELRKACEFFGRVVFSNISAQEDTETFDYRVQLAEHEAVLLDKMTTAADFVEGLTNHPDRLLGLTGSQGAAICFGEKLILVGETPDEKAVQYLLQWLENREVQDVFFTSSLSQIYPDAVNFKSVASGLLAIPIARHNFLLWFRPEVLQTVNWGGDPNHAYEATQEDGKIELHPRQSFDLWKEIVRLQSLPWQSVEIQSALALKKAIVNLILRQAEE
5 | no | Cph1 (N514) DR171/2AG: double mutant D171A/R172G of Cph1 (N514) (protein, UniProt Q55168 1-514, looked up, variant D171A R172G, N514 fragment) MATTVQLSDQSLRQLETLAIHTAHLIQPHGLVVVLQEPDLTISQISANCTGILGRSPEDLLGRTLGEVFDSFQIDPIQSRLTAGQISSLNPSKLWARVMGDDFVIFDGVFHRNSDGLLVCELEPAYTSDNLPFLGFYHMANAALNRLRQQANLRDFYDVIVEEVRRMTGFAGVMLYRFDENNHGDVIAEDKRDDMEPYLGLHYPESDIPQPARRLFIHNPIRVIPDVYGVAVPLTPAVNPSTNRAVDLTESILRSAYHCHLTYLKNMGVGASLTISLIKDGHLWGLIACHHQTPKVIPFELRKACEFFGRVVFSNISAQEDTETFDYRVQLAEHEAVLLDKMTTAADFVEGLTNHPDRLLGLTGSQGAAICFGEKLILVGETPDEKAVQYLLQWLENREVQDVFFTSSLSQIYPDAVNFKSVASGLLAIPIARHNFLLWFRPEVLQTVNWGGDPNHAYEATQEDGKIELHPRQSFDLWKEIVRLQSLPWQSVEIQSALALKKAIVNLILRQAEE
6 | yes | Cph1 (N514) Wild Type: N514 deletion mutant of Synechocystis sp. PCC 6803 apophytochrome Cph1, wild-type sequence (protein, UniProt Q55168 1-514, looked up, fragment) MATTVQLSDQSLRQLETLAIHTAHLIQPHGLVVVLQEPDLTISQISANCTGILGRSPEDLLGRTLGEVFDSFQIDPIQSRLTAGQISSLNPSKLWARVMGDDFVIFDGVFHRNSDGLLVCELEPAYTSDNLPFLGFYHMANAALNRLRQQANLRDFYDVIVEEVRRMTGFDRVMLYRFDENNHGDVIAEDKRDDMEPYLGLHYPESDIPQPARRLFIHNPIRVIPDVYGVAVPLTPAVNPSTNRAVDLTESILRSAYHCHLTYLKNMGVGASLTISLIKDGHLWGLIACHHQTPKVIPFELRKACEFFGRVVFSNISAQEDTETFDYRVQLAEHEAVLLDKMTTAADFVEGLTNHPDRLLGLTGSQGAAICFGEKLILVGETPDEKAVQYLLQWLENREVQDVFFTSSLSQIYPDAVNFKSVASGLLAIPIARHNFLLWFRPEVLQTVNWGGDPNHAYEATQEDGKIELHPRQSFDLWKEIVRLQSLPWQSVEIQSALALKKAIVNLILRQAEE
7 | yes | Cph1 (N514) D171A: site-directed single mutant D171A of Cph1 (N514) (protein, UniProt Q55168 1-514, looked up, variant D171A, N514 fragment) MATTVQLSDQSLRQLETLAIHTAHLIQPHGLVVVLQEPDLTISQISANCTGILGRSPEDLLGRTLGEVFDSFQIDPIQSRLTAGQISSLNPSKLWARVMGDDFVIFDGVFHRNSDGLLVCELEPAYTSDNLPFLGFYHMANAALNRLRQQANLRDFYDVIVEEVRRMTGFARVMLYRFDENNHGDVIAEDKRDDMEPYLGLHYPESDIPQPARRLFIHNPIRVIPDVYGVAVPLTPAVNPSTNRAVDLTESILRSAYHCHLTYLKNMGVGASLTISLIKDGHLWGLIACHHQTPKVIPFELRKACEFFGRVVFSNISAQEDTETFDYRVQLAEHEAVLLDKMTTAADFVEGLTNHPDRLLGLTGSQGAAICFGEKLILVGETPDEKAVQYLLQWLENREVQDVFFTSSLSQIYPDAVNFKSVASGLLAIPIARHNFLLWFRPEVLQTVNWGGDPNHAYEATQEDGKIELHPRQSFDLWKEIVRLQSLPWQSVEIQSALALKKAIVNLILRQAEE
